# Results taken from US20220033522A1 (Janssen / Centocor, published 2022).
# Read-outs that look alike come from different tables or passages of the source.
# B1: D001 (antibody, V domains shown)
# VH: QVQLQQSGPELMKPGASVKISCKASGYSFTNYYIHWVKQSHGKSLEWIGYIDPFNGGTSDNLKFKGAATLTVDKSSSTAYMHLSSLTSEDSAVYYCARSEYDPYYVMDYWGQGTSVTVSS
# VL: EIVLTQSPDTLSVTPGDSVSLSCRASQSISSNLHWYQQKSHESPRLLIKYASQSISGIPSRFSGSGSGTDFTLSINSVETEDFGIYFCQQTNFWPYTFGGGTKLEIKR
# notes: also called Sino Biological cat. #40150-D001
# B2: SAD-S35 (antibody, human IgG1, kappa, V domains shown)
# VH: QVQLVESGGGLVQPGGSLRLSCAASGITVSSNYMSWVRQAPGKGLEWVSVIYSGGSTYYADSVKGRFSISRDNSKNTLYLQMNSLRAEDTAVYYCARDLQERGGMDVWGQGTTVTVSS
# VL: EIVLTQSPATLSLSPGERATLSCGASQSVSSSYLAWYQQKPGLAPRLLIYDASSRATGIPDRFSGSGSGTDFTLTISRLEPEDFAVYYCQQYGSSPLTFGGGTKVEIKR
# notes: also called Acro Biosystems cat. #SAD-S35
# B3: CR3022 (antibody)
# heavy: not shown
# light: […]
# Experiments:
# [1] = molecular target: T1, biotinylated SARS-CoV-2 spike glycoprotein (SARS-CoV-2, UniProt P0DTC2 16-1213)
# [2] = molecular target: T2, polymeric immunoglobulin receptor (pIgR), his-tagged (human, UniProt P01833 19-638); assay: BLI (Octet): his-tagged pIgR on anti-His (HIS2) biosensors, protein in solution at 10 µg/mL, 90 s association, 90 s dissociation
# T2 sequence (P01833 19-638 limits assumed): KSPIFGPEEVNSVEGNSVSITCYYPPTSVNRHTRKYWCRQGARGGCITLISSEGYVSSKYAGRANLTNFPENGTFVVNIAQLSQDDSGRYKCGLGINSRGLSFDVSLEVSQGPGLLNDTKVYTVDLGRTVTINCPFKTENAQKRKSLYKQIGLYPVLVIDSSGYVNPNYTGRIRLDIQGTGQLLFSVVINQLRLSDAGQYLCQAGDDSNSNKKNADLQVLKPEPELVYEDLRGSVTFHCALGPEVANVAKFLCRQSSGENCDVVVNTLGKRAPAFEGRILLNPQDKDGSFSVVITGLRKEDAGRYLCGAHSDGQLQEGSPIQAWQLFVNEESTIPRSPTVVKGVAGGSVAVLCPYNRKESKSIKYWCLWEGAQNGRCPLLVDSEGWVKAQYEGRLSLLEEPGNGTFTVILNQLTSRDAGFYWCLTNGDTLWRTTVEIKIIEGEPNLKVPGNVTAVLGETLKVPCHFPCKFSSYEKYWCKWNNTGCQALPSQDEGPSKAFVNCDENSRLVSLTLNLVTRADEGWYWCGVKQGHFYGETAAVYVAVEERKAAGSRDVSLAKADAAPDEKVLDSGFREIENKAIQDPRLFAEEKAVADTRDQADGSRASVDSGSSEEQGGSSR
# [3] = molecular target: T1, biotinylated SARS-CoV-2 spike …; remark: listed apart in the source
# [4] = molecular target: T3, SARS-CoV-2 spike glycoprotein (his-tagged SARS-CoV-2 RBD) (SARS-CoV-2, UniProt P0DTC2 319-541); assay: BLI (Octet), his-tagged SARS-CoV-2 RBD on anti-His biosensor
# T3 construct: domain: RBD; also called COVID-19 RBD; wild-type spike glycoprotein
# [5] = molecular target: T2, polymeric immunoglobulin receptor …; assay: BLI (Octet), his-tagged pIgR on anti-His biosensor
Binder,IC50 [1] [nM],binding result [2],IC50 [3] [nM],Kd [4] [nM],koff [4] [s⁻¹],Relative Kd (compared to CR3022) [4],binding result [5]
B1,0.299,no binding (tested: 10 µg/mL),0.2,15,1.1e-05,,
B2,0.323,,,14.3,8.91e-06,12,
B3,,,,,,,no binding (tested: 10 µg/mL)
